Source: US20260001928A1 (CORTERIA PHARMACEUTICALS, priority 2022, published 2026)
*1 amine or outer side, *2 acyl side, *3 side chain or, on linkers, in order; H or OH if unused. Where no end group is shown, it is not given here. Side-chain parts run from the residue outwards. [ ]: non-standard residue; d: D form. The star is where a group is joined. C20 diacid = O=C(O)CCCCCCCCCCCCCCCCCCC(=O)*; C16 diacid = O=C(O)CCCCCCCCCCCCCCC(=O)*; γGlu = O=C(O)[C@H](CCC(=O)[*:2])N[*:1]; NMeI = CC[C@H](C)[C@H](NC)C(=O)O; Pentanoyl = CCCCC(=O)*; AEEA = NCCOCCOCC(=O)O; Aib = CC(C)(N)C(=O)O

B1: SEQ ID NO 235 (peptide)
peptide: Pentanoyl-VLSLD[dV]PIKLK([AEEA-γGlu-C20 diacid])KILLEQEKQKKQREQAETN[Aib]QILAQV-NH2
SMILES: CCCCC(=O)N[C@H](C(=O)N[C@@H](CC(C)C)C(=O)N[C@@H](CO)C(=O)N[C@@H](CC(C)C)C(=O)N[C@@H](CC(=O)O)C(=O)N[C@@H](C(=O)N1CCC[C@H]1C(=O)N[C@H](C(=O)N[C@@H](CCCCN)C(=O)N[C@@H](CC(C)C)C(=O)N[C@@H](CCCCNC(=O)COCCOCCNC(=O)CC[C@H](NC(=O)CCCCCCCCCCCCCCCCCCC(=O)O)C(=O)O)C(=O)N[C@@H](CCCCN)C(=O)N[C@H](C(=O)N[C@@H](CC(C)C)C(=O)N[C@@H](CC(C)C)C(=O)N[C@@H](CCC(=O)O)C(=O)N[C@@H](CCC(N)=O)C(=O)N[C@@H](CCC(=O)O)C(=O)N[C@@H](CCCCN)C(=O)N[C@@H](CCC(N)=O)C(=O)N[C@@H](CCCCN)C(=O)N[C@@H](CCCCN)C(=O)N[C@@H](CCC(N)=O)C(=O)N[C@@H](CCCNC(=N)N)C(=O)N[C@@H](CCC(=O)O)C(=O)N[C@@H](CCC(N)=O)C(=O)N[C@@H](C)C(=O)N[C@@H](CCC(=O)O)C(=O)N[C@H](C(=O)N[C@@H](CC(N)=O)C(=O)NC(C)(C)C(=O)N[C@@H](CCC(N)=O)C(=O)N[C@H](C(=O)N[C@@H](CC(C)C)C(=O)N[C@@H](C)C(=O)N[C@@H](CCC(N)=O)C(=O)N[C@H](C(N)=O)C(C)C)[C@@H](C)CC)[C@@H](C)O)[C@@H](C)CC)[C@@H](C)CC)C(C)C)C(C)C
B2: SEQ ID NO 236 (peptide)
peptide: Ac-IVLSLD[dV]PIKLK([AEEA-AEEA-γGlu-C20 diacid])KILLEQEKQKEQREQAETN[Aib]QILAQV-NH2
SMILES: CC[C@H](C)[C@H](NC(C)=O)C(=O)N[C@H](C(=O)N[C@@H](CC(C)C)C(=O)N[C@@H](CO)C(=O)N[C@@H](CC(C)C)C(=O)N[C@@H](CC(=O)O)C(=O)N[C@@H](C(=O)N1CCC[C@H]1C(=O)N[C@H](C(=O)N[C@@H](CCCCN)C(=O)N[C@@H](CC(C)C)C(=O)N[C@@H](CCCCNC(=O)COCCOCCNC(=O)COCCOCCNC(=O)CC[C@H](NC(=O)CCCCCCCCCCCCCCCCCCC(=O)O)C(=O)O)C(=O)N[C@@H](CCCCN)C(=O)N[C@H](C(=O)N[C@@H](CC(C)C)C(=O)N[C@@H](CC(C)C)C(=O)N[C@@H](CCC(=O)O)C(=O)N[C@@H](CCC(N)=O)C(=O)N[C@@H](CCC(=O)O)C(=O)N[C@@H](CCCCN)C(=O)N[C@@H](CCC(N)=O)C(=O)N[C@@H](CCCCN)C(=O)N[C@@H](CCC(=O)O)C(=O)N[C@@H](CCC(N)=O)C(=O)N[C@@H](CCCNC(=N)N)C(=O)N[C@@H](CCC(=O)O)C(=O)N[C@@H](CCC(N)=O)C(=O)N[C@@H](C)C(=O)N[C@@H](CCC(=O)O)C(=O)N[C@H](C(=O)N[C@@H](CC(N)=O)C(=O)NC(C)(C)C(=O)N[C@@H](CCC(N)=O)C(=O)N[C@H](C(=O)N[C@@H](CC(C)C)C(=O)N[C@@H](C)C(=O)N[C@@H](CCC(N)=O)C(=O)N[C@H](C(N)=O)C(C)C)[C@@H](C)CC)[C@@H](C)O)[C@@H](C)CC)[C@@H](C)CC)C(C)C)C(C)C
B3: SEQ ID NO 237 (peptide)
peptide: [NMeI]VLSLD[dV]PIKLK([AEEA-AEEA-γGlu-C20 diacid])KILLEQEKQKEQREQAETN[Aib]QILAQV-NH2
modifications: N-terminus assumed
SMILES: CC[C@H](C)[C@H](NC)C(=O)N[C@H](C(=O)N[C@@H](CC(C)C)C(=O)N[C@@H](CO)C(=O)N[C@@H](CC(C)C)C(=O)N[C@@H](CC(=O)O)C(=O)N[C@@H](C(=O)N1CCC[C@H]1C(=O)N[C@H](C(=O)N[C@@H](CCCCN)C(=O)N[C@@H](CC(C)C)C(=O)N[C@@H](CCCCNC(=O)COCCOCCNC(=O)COCCOCCNC(=O)CC[C@H](NC(=O)CCCCCCCCCCCCCCCCCCC(=O)O)C(=O)O)C(=O)N[C@@H](CCCCN)C(=O)N[C@H](C(=O)N[C@@H](CC(C)C)C(=O)N[C@@H](CC(C)C)C(=O)N[C@@H](CCC(=O)O)C(=O)N[C@@H](CCC(N)=O)C(=O)N[C@@H](CCC(=O)O)C(=O)N[C@@H](CCCCN)C(=O)N[C@@H](CCC(N)=O)C(=O)N[C@@H](CCCCN)C(=O)N[C@@H](CCC(=O)O)C(=O)N[C@@H](CCC(N)=O)C(=O)N[C@@H](CCCNC(=N)N)C(=O)N[C@@H](CCC(=O)O)C(=O)N[C@@H](CCC(N)=O)C(=O)N[C@@H](C)C(=O)N[C@@H](CCC(=O)O)C(=O)N[C@H](C(=O)N[C@@H](CC(N)=O)C(=O)NC(C)(C)C(=O)N[C@@H](CCC(N)=O)C(=O)N[C@H](C(=O)N[C@@H](CC(C)C)C(=O)N[C@@H](C)C(=O)N[C@@H](CCC(N)=O)C(=O)N[C@H](C(N)=O)C(C)C)[C@@H](C)CC)[C@@H](C)O)[C@@H](C)CC)[C@@H](C)CC)C(C)C)C(C)C
B4: SEQ ID NO 233 (peptide)
peptide: [NMeI]VLSLD[dV]PIKLK([AEEA-γGlu-C20 diacid])KILLEQEKQKEQREQAETN[Aib]QILAQV-NH2
modifications: N-terminus assumed
SMILES: CC[C@H](C)[C@H](NC)C(=O)N[C@H](C(=O)N[C@@H](CC(C)C)C(=O)N[C@@H](CO)C(=O)N[C@@H](CC(C)C)C(=O)N[C@@H](CC(=O)O)C(=O)N[C@@H](C(=O)N1CCC[C@H]1C(=O)N[C@H](C(=O)N[C@@H](CCCCN)C(=O)N[C@@H](CC(C)C)C(=O)N[C@@H](CCCCNC(=O)COCCOCCNC(=O)CC[C@H](NC(=O)CCCCCCCCCCCCCCCCCCC(=O)O)C(=O)O)C(=O)N[C@@H](CCCCN)C(=O)N[C@H](C(=O)N[C@@H](CC(C)C)C(=O)N[C@@H](CC(C)C)C(=O)N[C@@H](CCC(=O)O)C(=O)N[C@@H](CCC(N)=O)C(=O)N[C@@H](CCC(=O)O)C(=O)N[C@@H](CCCCN)C(=O)N[C@@H](CCC(N)=O)C(=O)N[C@@H](CCCCN)C(=O)N[C@@H](CCC(=O)O)C(=O)N[C@@H](CCC(N)=O)C(=O)N[C@@H](CCCNC(=N)N)C(=O)N[C@@H](CCC(=O)O)C(=O)N[C@@H](CCC(N)=O)C(=O)N[C@@H](C)C(=O)N[C@@H](CCC(=O)O)C(=O)N[C@H](C(=O)N[C@@H](CC(N)=O)C(=O)NC(C)(C)C(=O)N[C@@H](CCC(N)=O)C(=O)N[C@H](C(=O)N[C@@H](CC(C)C)C(=O)N[C@@H](C)C(=O)N[C@@H](CCC(N)=O)C(=O)N[C@H](C(N)=O)C(C)C)[C@@H](C)CC)[C@@H](C)O)[C@@H](C)CC)[C@@H](C)CC)C(C)C)C(C)C
B5: SEQ ID NO 14 (peptide)
peptide: H-IVLSLD[dV]PIKLK([γGlu-C16 diacid])QILLKQERQKKQREQAEKNTQILEQV-NH2
SMILES: CC[C@H](C)[C@H](N)C(=O)N[C@H](C(=O)N[C@@H](CC(C)C)C(=O)N[C@@H](CO)C(=O)N[C@@H](CC(C)C)C(=O)N[C@@H](CC(=O)O)C(=O)N[C@@H](C(=O)N1CCC[C@H]1C(=O)N[C@H](C(=O)N[C@@H](CCCCN)C(=O)N[C@@H](CC(C)C)C(=O)N[C@@H](CCCCNC(=O)CC[C@H](NC(=O)CCCCCCCCCCCCCCC(=O)O)C(=O)O)C(=O)N[C@@H](CCC(N)=O)C(=O)N[C@H](C(=O)N[C@@H](CC(C)C)C(=O)N[C@@H](CC(C)C)C(=O)N[C@@H](CCCCN)C(=O)N[C@@H](CCC(N)=O)C(=O)N[C@@H](CCC(=O)O)C(=O)N[C@@H](CCCNC(=N)N)C(=O)N[C@@H](CCC(N)=O)C(=O)N[C@@H](CCCCN)C(=O)N[C@@H](CCCCN)C(=O)N[C@@H](CCC(N)=O)C(=O)N[C@@H](CCCNC(=N)N)C(=O)N[C@@H](CCC(=O)O)C(=O)N[C@@H](CCC(N)=O)C(=O)N[C@@H](C)C(=O)N[C@@H](CCC(=O)O)C(=O)N[C@@H](CCCCN)C(=O)N[C@@H](CC(N)=O)C(=O)N[C@H](C(=O)N[C@@H](CCC(N)=O)C(=O)N[C@H](C(=O)N[C@@H](CC(C)C)C(=O)N[C@@H](CCC(=O)O)C(=O)N[C@@H](CCC(N)=O)C(=O)N[C@H](C(N)=O)C(C)C)[C@@H](C)CC)[C@@H](C)O)[C@@H](C)CC)[C@@H](C)CC)C(C)C)C(C)C
B6: SEQ ID NO 234 (peptide)
peptide: [NMeI]VLSLD[dV]PIKLK([AEEA-γGlu-C20 diacid])KILLEQEKQK[Aib]QREQAETN[Aib]QILAQV-NH2
modifications: N-terminus assumed
SMILES: CC[C@H](C)[C@H](NC)C(=O)N[C@H](C(=O)N[C@@H](CC(C)C)C(=O)N[C@@H](CO)C(=O)N[C@@H](CC(C)C)C(=O)N[C@@H](CC(=O)O)C(=O)N[C@@H](C(=O)N1CCC[C@H]1C(=O)N[C@H](C(=O)N[C@@H](CCCCN)C(=O)N[C@@H](CC(C)C)C(=O)N[C@@H](CCCCNC(=O)COCCOCCNC(=O)CC[C@H](NC(=O)CCCCCCCCCCCCCCCCCCC(=O)O)C(=O)O)C(=O)N[C@@H](CCCCN)C(=O)N[C@H](C(=O)N[C@@H](CC(C)C)C(=O)N[C@@H](CC(C)C)C(=O)N[C@@H](CCC(=O)O)C(=O)N[C@@H](CCC(N)=O)C(=O)N[C@@H](CCC(=O)O)C(=O)N[C@@H](CCCCN)C(=O)N[C@@H](CCC(N)=O)C(=O)N[C@@H](CCCCN)C(=O)NC(C)(C)C(=O)N[C@@H](CCC(N)=O)C(=O)N[C@@H](CCCNC(=N)N)C(=O)N[C@@H](CCC(=O)O)C(=O)N[C@@H](CCC(N)=O)C(=O)N[C@@H](C)C(=O)N[C@@H](CCC(=O)O)C(=O)N[C@H](C(=O)N[C@@H](CC(N)=O)C(=O)NC(C)(C)C(=O)N[C@@H](CCC(N)=O)C(=O)N[C@H](C(=O)N[C@@H](CC(C)C)C(=O)N[C@@H](C)C(=O)N[C@@H](CCC(N)=O)C(=O)N[C@H](C(N)=O)C(C)C)[C@@H](C)CC)[C@@H](C)O)[C@@H](C)CC)[C@@H](C)CC)C(C)C)C(C)C

What follows are binders tested against human corticotropin-releasing factor 2a (CRF2a receptor) (human), Q13324 (assay: cell-based or functional assay).
Sequence of human corticotropin-releasing factor 2a (CRF2a receptor) (human), Q13324 (Q13324 20-411): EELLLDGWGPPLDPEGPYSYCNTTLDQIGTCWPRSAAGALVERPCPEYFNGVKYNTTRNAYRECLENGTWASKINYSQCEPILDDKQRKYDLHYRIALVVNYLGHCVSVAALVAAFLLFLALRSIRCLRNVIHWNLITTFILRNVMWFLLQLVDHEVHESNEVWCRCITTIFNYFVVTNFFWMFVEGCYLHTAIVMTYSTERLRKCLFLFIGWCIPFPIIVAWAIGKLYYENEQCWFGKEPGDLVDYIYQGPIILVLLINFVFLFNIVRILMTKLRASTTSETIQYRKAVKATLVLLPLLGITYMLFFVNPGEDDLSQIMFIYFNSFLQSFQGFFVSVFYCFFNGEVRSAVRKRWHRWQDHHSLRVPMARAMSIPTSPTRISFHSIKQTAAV
Work on B1 yielded an EC50 [nM] (cAMP) of 0.16 nM. Binder B2 has an EC50 [nM] (cAMP) of 0.54 nM. With B3 the EC50 [nM] (cAMP) was 0.41 nM. B4 was tested, and the EC50 [nM] (cAMP) was 0.12 nM. B5 was tested, and the EC50 [nM] (cAMP) was 0.26 nM. B6 gave an EC50 [nM] (cAMP) of 0.09 nM.
